{"source": "patent US20220089776A1", "about": "(OREGON HEALTH AND SCIENCE UNIVERSITY, published 2022)", "key": {"[1]": {"molecular_target": "T1, human blood protein factor XII (FXII) (human, UniProt P00748 20-615)", "T1 sequence (looked up)": "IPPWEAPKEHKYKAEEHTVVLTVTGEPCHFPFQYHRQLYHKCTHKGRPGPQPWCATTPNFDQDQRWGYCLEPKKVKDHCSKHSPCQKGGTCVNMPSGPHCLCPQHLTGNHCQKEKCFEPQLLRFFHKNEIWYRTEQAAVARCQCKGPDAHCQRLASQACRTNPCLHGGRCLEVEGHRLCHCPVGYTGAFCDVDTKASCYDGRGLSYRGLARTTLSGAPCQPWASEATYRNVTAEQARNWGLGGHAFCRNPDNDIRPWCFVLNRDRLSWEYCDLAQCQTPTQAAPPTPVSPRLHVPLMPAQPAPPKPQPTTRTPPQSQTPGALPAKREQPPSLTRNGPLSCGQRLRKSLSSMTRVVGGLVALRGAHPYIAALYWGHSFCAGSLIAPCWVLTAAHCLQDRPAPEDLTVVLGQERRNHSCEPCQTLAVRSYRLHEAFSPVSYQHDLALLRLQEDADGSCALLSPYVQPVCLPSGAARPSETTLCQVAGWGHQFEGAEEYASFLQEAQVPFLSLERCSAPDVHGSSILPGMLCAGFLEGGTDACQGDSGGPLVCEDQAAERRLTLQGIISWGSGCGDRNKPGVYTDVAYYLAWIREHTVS", "assay": "cell-based or functional assay"}, "[2]": {"molecular_target": "T1, human blood protein factor XII (FXII)", "assay": "cell-based or functional assay", "remark": "listed apart in the source"}, "[3]": {"molecular_target": "T2, human activated FXII (FXIIa) (human, UniProt P00748 20-615, limits assumed)", "T2 sequence (looked up)": "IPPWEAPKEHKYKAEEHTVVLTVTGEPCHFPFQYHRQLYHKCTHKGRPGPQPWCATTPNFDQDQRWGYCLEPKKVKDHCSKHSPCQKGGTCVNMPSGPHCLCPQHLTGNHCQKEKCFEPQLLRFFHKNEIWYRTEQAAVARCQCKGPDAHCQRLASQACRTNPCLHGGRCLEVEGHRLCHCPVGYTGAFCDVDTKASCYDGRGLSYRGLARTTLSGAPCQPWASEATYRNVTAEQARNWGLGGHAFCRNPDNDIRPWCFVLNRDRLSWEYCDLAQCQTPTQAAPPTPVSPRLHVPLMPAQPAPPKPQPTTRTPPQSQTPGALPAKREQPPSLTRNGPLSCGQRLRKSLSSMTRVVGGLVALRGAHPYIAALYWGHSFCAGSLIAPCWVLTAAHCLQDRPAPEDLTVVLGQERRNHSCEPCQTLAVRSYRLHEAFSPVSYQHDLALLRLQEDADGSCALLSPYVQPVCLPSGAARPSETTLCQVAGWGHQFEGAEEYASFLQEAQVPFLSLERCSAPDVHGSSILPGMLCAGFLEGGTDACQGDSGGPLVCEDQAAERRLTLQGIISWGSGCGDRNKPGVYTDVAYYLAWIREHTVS", "assay": "cell-based or functional assay"}, "rat FXII": {"molecular_target": "T3, rat FXII (rat, UniProt D3ZTE0 20-595)", "T3 construct": "mature; Plasma protein", "T3 sequence (looked up)": "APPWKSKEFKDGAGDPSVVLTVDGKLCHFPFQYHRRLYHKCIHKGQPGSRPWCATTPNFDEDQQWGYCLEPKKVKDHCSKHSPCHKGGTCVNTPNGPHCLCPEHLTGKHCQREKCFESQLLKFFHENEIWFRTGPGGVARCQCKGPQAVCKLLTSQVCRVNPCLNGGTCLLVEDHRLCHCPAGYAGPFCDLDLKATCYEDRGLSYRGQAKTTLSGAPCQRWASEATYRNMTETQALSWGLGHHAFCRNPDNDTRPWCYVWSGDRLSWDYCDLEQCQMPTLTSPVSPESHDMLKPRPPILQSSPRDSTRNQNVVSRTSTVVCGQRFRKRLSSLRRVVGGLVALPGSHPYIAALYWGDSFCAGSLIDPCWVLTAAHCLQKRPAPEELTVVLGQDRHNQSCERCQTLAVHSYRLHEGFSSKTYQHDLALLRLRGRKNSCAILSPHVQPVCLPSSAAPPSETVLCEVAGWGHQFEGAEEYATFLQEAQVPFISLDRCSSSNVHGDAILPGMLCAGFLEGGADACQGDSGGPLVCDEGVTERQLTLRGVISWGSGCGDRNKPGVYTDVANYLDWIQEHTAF", "assay": "Western blot of platelet-poor plasma, non-reduced SDS-PAGE"}, "rabbit FXII": {"molecular_target": "T4, rabbit FXII (rabbit, UniProt G1SIB7 20-617)", "T4 construct": "Plasma protein", "T4 sequence": "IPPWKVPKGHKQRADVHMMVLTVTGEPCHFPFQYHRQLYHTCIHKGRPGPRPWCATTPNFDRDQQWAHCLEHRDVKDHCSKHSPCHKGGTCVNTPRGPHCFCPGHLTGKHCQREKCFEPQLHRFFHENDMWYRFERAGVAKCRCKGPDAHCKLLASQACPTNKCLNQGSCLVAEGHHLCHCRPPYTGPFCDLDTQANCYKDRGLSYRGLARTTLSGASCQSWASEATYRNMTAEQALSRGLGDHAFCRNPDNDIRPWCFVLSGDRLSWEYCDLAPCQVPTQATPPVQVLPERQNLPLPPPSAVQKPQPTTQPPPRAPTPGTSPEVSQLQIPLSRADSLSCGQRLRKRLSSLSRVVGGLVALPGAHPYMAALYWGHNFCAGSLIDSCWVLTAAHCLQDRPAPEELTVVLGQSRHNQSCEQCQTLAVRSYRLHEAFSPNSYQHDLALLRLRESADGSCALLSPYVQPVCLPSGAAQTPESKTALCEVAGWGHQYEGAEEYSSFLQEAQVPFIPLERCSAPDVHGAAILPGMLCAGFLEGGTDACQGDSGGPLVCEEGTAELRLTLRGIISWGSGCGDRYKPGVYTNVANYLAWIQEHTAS", "assay": "Western blot of platelet-poor plasma; primary antibody murine 5C12", "source_text": "(§1) FIG. 3A-3C: Species specificity of 5C12. (FIG. 3A) Western blots of platelet poor plasmas from different species (indicated above each lane) size fractionated by SDS-PAGE […]. Species included in alphabetical order: African green monkey, baboon, beagle, cat, cattle, chicken, cynomolgus monkey, dog, elephant, giant anteater, horse, human, human deficient in FXII, llama, marmoset, pig, rabbit, raccoon, rat, red kangaroo, rhesus macaque and tiger. Human plasma and human deficient in FXII plasma were used in all gels as a positive and negative control, respectively. […] 5C12 also recognizes both the alpha (comprising both the light and heavy chain of FXII) and the beta (comprising only the light chain and a nonapeptide fragment of the heavy chain) form of activated FXII (FXIIa) (FIG. 3C). The primary antibody for all Western blots was murine 5C12, the secondary antibody was goat-anti-mouse polyclonal."}, "mouse FXII": {"molecular_target": "T5, mouse FXII (mouse, UniProt Q80YC5 20-597)", "T5 construct": "mature; Plasma protein; Tested only in the aPTT assay", "T5 sequence (looked up)": "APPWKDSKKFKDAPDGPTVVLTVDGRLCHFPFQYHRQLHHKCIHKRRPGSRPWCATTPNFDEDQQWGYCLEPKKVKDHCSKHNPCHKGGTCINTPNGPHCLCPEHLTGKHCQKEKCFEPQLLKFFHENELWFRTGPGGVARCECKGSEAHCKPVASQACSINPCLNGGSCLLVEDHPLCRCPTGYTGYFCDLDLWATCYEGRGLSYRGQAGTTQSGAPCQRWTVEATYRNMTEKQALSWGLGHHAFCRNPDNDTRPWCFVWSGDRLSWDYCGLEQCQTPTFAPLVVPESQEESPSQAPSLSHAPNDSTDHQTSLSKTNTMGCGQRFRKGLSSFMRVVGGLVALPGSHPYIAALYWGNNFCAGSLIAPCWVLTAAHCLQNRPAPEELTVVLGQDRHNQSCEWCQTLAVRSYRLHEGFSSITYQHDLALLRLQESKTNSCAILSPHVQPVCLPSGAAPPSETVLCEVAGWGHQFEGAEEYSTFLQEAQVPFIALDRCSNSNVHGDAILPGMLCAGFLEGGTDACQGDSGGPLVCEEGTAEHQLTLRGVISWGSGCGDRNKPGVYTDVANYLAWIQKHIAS", "assay": "Western blot of recombinant mouse FXII, non-reduced and reduced SDS-PAGE; primary antibody murine 5C12", "source_text": "as §1"}}, "data": [{"binder": "mouse monoclonal antibody 5C12 (antibody, mouse IgG1, kappa, V domains shown, Purified from hybridoma; also called AB053; 5C12 MAb) VH: DVQLQESGPDLVKPSQSLSLTCTVTGYSITSGYSWHWIRQFPGNNLEWMGYIQYSGNTNSNPSLKSRISITRDTSKNQFFLHLNSVTTEDTATYYCARWGSFDYWGQGTTLTVSS VL: QIVLTQSPAIMSASPGEKVTMTCSASSSVNYMHWYQQKSGTSPKRWIYDTSKLASGVPARFSGSGSGTSYSLTISSMEAGDAATYYCQQWSGNPPTFGGGTILEIKR", "values": [{"measurement": "IC50 (read off the curve): FXIIa amidolytic activity after activation of 50 nM FXII with short polyphosphates, PK and HK", "setting": "[1]", "value": "~10", "unit": "nM"}, {"measurement": "IC50 (read off the curve): FXIIa amidolytic activity after activation of 50 nM FXII with long polyphosphates, PK and HK", "setting": "[2]", "value": "~10", "unit": "nM"}, {"measurement": "IC50 (read off the curve): amidolytic activity of 20 nM FXIIa", "setting": "[3]", "value": "~7", "unit": "nM"}, {"measurement": "binding result", "setting": "rat FXII", "value": "no binding"}, {"measurement": "binding result", "setting": "rabbit FXII", "value": "no binding"}, {"measurement": "binding result", "setting": "mouse FXII", "value": "no binding"}]}]}
